Drawing on article PMC5730197, “Evolution-guided adaptation of an adenylation domain substrate specificity to an unusual amino acid” (PLoS ONE, 2017), this text covers Km, kcat and kcat/Km for one protein.

What all share (assay): purified protein
Common to all, as to type: biochemical, Streptomyces lincolnensis
Conditions in all cases: amino acid-dependent exchange of 32P from PPi into ATP

Substrate in data set [1]: CCCCC[C@H]1CN[C@H](C(=O)O)C1
Substrate in data set [2]: CCC[C@H]1CN[C@H](C(=O)O)C1
Substrate in data set [3]: CCCC[C@H]1CN[C@H](C(=O)O)C1
Substrate in data set [4]: CC[C@H]1CN[C@H](C(=O)O)C1

B1: LmbC (Streptomyces lincolnensis) (protein)
chain: MSSSVRLSTLLASAAEARPEAPAVLGETRLPVTYGELAARAGGIQAALAGLGVRAGDRVALLSGRTDADAVAAVHAILAAGAVYVPLDAASPPARWASVSRVCAPTAVVGERALLDRFAAAVPGPRRLALPSDGDELPAGRLDPVRSDGTDVAYLLTTSGSTGVPKCVAHTGAGAVAFLEWMVGAFPVGGDDVFACHAPLHFDVSVASVLGSALGGAALAPVPRELSGFPVELATWIAERAVTVWLSVPYPLARLSGLEERAARERLATLRTVVFAGDVFPHQRLAALMRCAPGARFLNIYGPTETNGCTYEVVDAPPAGPVPIGRPVECAECWVEDDDGRPVDAVGSVGELVVAGPTVAAGYWGVEGHGAERFRTGETCPGGRAYATGDQVRVLPGGRYAFLGRMDNMIKMRGQRFELEEVENAVRLAPGVEDCCVVKVDVRDDHSRLLAVVVGPGAGDPRTLREHCLTRLPSWAVPHRFLTAAALPLGSTGKVDRRALREELVTRGE
notes: full-length stand-alone A-domain, C-terminal His8 tag kept, pET42b (plmbC1), E. coli BL21(DE3)
For orientation: Km means the concentration of substrate that gives half-maximal velocity. What is called kcat is the number of substrate molecules converted per active site and unit of time at saturation. In general, kcat/Km refers to the turnover number divided by the Michaelis constant. On to B1, for which the Km in data set [1] came out at 0.06 ± 0.003 mM; in data set [2], 0.28 ± 0.03 mM; in data set [3] it was 0.12 ± 0.006 mM; in data set [4], 6.4 ± 0.3 mM. Further, the catalytic constant (kcat) in data set [1] was found to be 0.917 ± 0.0133 s⁻¹; in data set [2], 0.55 ± 0.0167 s⁻¹. Also, the kcat/Km in data set [1] is 15300 M⁻¹ s⁻¹; in data set [2], 2000 M⁻¹ s⁻¹.
